From US20240400720A1 (NOVIMMUNE S A, published 2024)

B1: B7 antibody (antibody, human IgG1, lambda, V domains shown)
VH: not shown
VL: NFMLTQPHSVSESPGKTVTISCTRSSGSIADKYVQWYQQRPGSSPTTVIYEDNQRPSGVPDRFSGSIDSSSNSASLTISGLKTEDEADYYCQSYDSSLYGWVFGGGTKLTVLG
notes: anti-CD19, IgG, lambda (IGLV6-57); parental clone; also called 1B7
B2: CD47xCD19 bispecific antibody with CD47 arm Ke8G11 (bispecific antibody)
heavy: not shown
light 1: DIQMTQSPSSLSASVGDRVTITCRASQSIGRYLNWYQQKPGKAPKLLIYAASSLQSGVPSRFSGSGSGTDFTLTISSLQPEDFATYYCQQMHPRGPKTFGQGTKVEIKRTVAAPSVFIFPPSDEQLKSGTASVVCLLNNFYPREAKVQWKVDNALQSGNSQESVTEQDSKDSTYSLSSTLTLSKADYEKHKVYACEVTHQGLSSPVTKSFNRGEC
light 2: NFMLTQPHSVSESPGKTVTISCTRSSGSIEDKYVQWYQQRPGSSPTIVIYYDNERPSGVPDRFSGSIDSSSNSASLTISGLKTEDEADYYCQTYDQSLYGWVFGGGTKLTVLGQPKAAPSVTLFPPSSEELQANKATLVCLISDFYPGAVTVAWKADSSPVKAGVETTTPSKQSNNKYAASSYLSLTPEQWKSHRSYSCQVTHEGSTVEKTVAPTECS
notes: also called Ke8G11 CD47Xcd19 BsAb; κλ body

What was measured:
human CD19 on Raji cells = target: T1, human CD19 on Raji cells (human, UniProt P15391 20-556); experiment: FACS on Raji cells (CD19-positive), dose-response
T1 construct: whole, on cells; also called native form of hCD19
T1 sequence (looked up): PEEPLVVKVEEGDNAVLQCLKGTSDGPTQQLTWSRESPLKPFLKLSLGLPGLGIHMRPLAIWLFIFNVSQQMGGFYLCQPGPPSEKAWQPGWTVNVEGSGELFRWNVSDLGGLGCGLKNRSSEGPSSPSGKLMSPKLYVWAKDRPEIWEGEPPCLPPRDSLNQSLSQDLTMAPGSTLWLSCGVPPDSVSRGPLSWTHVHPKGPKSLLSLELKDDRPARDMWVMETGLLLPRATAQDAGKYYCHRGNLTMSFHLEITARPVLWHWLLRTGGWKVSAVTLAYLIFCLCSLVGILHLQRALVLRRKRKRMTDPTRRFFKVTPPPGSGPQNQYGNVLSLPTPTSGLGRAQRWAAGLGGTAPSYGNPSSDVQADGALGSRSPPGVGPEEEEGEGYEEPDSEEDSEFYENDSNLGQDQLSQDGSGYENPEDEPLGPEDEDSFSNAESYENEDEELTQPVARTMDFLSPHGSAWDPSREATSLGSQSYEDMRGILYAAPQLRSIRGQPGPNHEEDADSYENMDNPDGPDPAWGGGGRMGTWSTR

human CD19 = target: T2, human CD19 (human, UniProt P15391 20-291, limits assumed); experiment: parental antibody, weaker than D11
T2 construct: also called hCD19
T2 sequence (looked up): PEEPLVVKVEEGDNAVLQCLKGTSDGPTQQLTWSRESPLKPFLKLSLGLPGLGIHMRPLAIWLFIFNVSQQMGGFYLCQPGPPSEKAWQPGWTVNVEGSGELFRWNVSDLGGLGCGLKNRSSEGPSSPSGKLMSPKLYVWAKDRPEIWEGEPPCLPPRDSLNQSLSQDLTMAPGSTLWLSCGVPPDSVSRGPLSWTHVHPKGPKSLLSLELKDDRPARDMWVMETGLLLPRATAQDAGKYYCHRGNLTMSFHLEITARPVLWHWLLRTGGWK

[1] = target: T3, human CD47 on the cell surface (human, UniProt Q08722 19-323); experiment: CD47-SIRPα inhibition assay on Raji cells (competition with soluble SIRPα)
T3 construct: whole, on cells; also called huCD47; native CD47

| Binder | binding result (human CD19 on Raji cells) | binding result (human CD19) | IC50 [1] |
| --- | --- | --- | --- |
| B1 | binds | binds | – |
| B2 | – | – | 0.066 nM |
